According to patent publication US20140017764:

B1: TEV-PE10, purified (protein)
chain: HHHHHHSLFKGPRDYNPISSTICHLTNESDGHTTSLYGIGFGPFIITNKHLFRRNNGTLLVQSLHGVFKVKNTTTLQQHLIDGRDMIIIRMPKDFPPFPQKLKFREPQREERICLVTTNFQTKRMSSMVSDTSCTFPSSDGIFWKHWIQTKRGQCGSPLVSTRDGFIVGIHSASNFANTNKYFTSVPKNFMELLTNQEAQQWVSGWRLNADSVLWGGHKVFIPKPEEPFQPVKEATQLMN
B2: wild-type TEV protease (TEV-P), purified (protein)
chain: HHHHHHSLFKGPRDYNPISSTICHLTNESDGHTTSLYGIGFGPFIITNKHLFRRNNGTLLVQSLHGVFKVKNTTTLQQHLIDGRDMIIIRMPKDFPPFPQKLKFREPQREERICLVTTNFQTKSMSSMVSDTSCTFPSSDGIFWKHWIQTKDGQCGSPLVSTRDGFIVGIHSASNFTNTNNYFTSVPKNFMELLTNQEAQQWVSGWRLNADSVLWGGHKVFMPKPEEPFQPVKEATQLMN
B3: TEV-PH21, purified (protein)
chain: HHHHHHSLFKGPRDYNPISSAICHLTNESDGHTTSLYGIGFGPFIITNKHLFRRNNGTLLVQSLHGVFKVKNTTTLQQHLIDGRDMIIIRMPKDFPPFPQKLKFREPQREERICLVTTNFQTKSMSSMVSDTSCTFPSSDGIFWKHWIQAKPGQCGCPLVSTRDGFIVGIHTAANFANTNNYFTSVPKNFMELLTNQEAQQWVSGWRLNADSVLWGGHKVFMPKPEEPFQPVKEATQLMN

Target: […] peptide substrate

Protein | KM | kcat | kcat/KM
B1 | 120 µM | 0.0194 s⁻¹ | 160 M⁻¹ s⁻¹
B2 | 110 µM | 0.13 s⁻¹ | 1200 M⁻¹ s⁻¹
B3 | 820 µM | 0.0171 s⁻¹ | 20.7 M⁻¹ s⁻¹
